Source: the supplement of paper PMC7125110
± gives the standard error. Variants at the floor of the assay were thinned out.

B1: glmS ribozyme (parent)
chain: AUAAAAGCGCCAGAACUACAGAAAUGUAGUUGACGAGGAGGAGGUUUAUCGAAUUUUCGGCGGAUGCCUCCAAA

Legend:
Conditions in all cases: with glucosamine-6-phosphate
glucosamine-6-phosphate [1] = variants of: B1; assay: self-cleavage kobs at 160 uM GlcN6P; higher = faster cleavage; RNA array
How it was run: (§1)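 On sequenced MiSeq chips, barcoded ribozyme variants were made in situ by E. coli RNA polymerase and followed at 37 °C through a hybridised Cy3 probe. Glucosamine-6-phosphate was flowed in at 40 μM to 10 mM in HEPES/KCl/Mg(OAc)2 buffer. Exponential fits to normalised per-tile medians gave kobs, and weighted Michaelis–Menten fits gave kcat and KM.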

glucosamine-6-phosphate [2] = variants of: B1; assay: self-cleavage kobs at 640 uM GlcN6P; higher = faster cleavage; RNA array
How it was run: as §1

glucosamine-6-phosphate [3] = variants of: B1; assay: self-cleavage kobs at 10000 uM GlcN6P; higher = faster cleavage; RNA array
How it was run: as §1

glucosamine-6-phosphate [4] = variants of: B1; assay: self-cleavage kobs at 2500 uM GlcN6P; higher = faster cleavage; RNA array
How it was run: as §1

Variant	self-cleavage kobs at 160 uM GlcN6P (glucosamine-6-phosphate [1]) [s⁻¹]	self-cleavage kobs at 640 uM GlcN6P (glucosamine-6-phosphate [2]) [s⁻¹]	self-cleavage kobs at 10000 uM GlcN6P (glucosamine-6-phosphate [3]) [s⁻¹]	self-cleavage kobs at 2500 uM GlcN6P (glucosamine-6-phosphate [4]) [s⁻¹]
G29A A39C C61G	< 1e-05	< 1e-05	< 1e-05	
C34U U49G A52U	< 1e-05		< 1e-05	< 1e-05
C50A C67U C68U	6.13e-05 ± 3.1e-05	6.87e-05 ± 2.8e-05		0.000153 ± 6.2e-05
U49C U57C G60A G63A	< 1e-05	< 1e-05		< 1e-05
C10G A14U A42U G60C C67G	< 1e-05			
A6U A15C U55A G66U	< 1e-05	< 1e-05		< 1e-05
C11G A14C U69A	0.000527 ± 0.00014			9.25e-05 ± 3.6e-05
G44A U56A C70U	< 1e-05	< 1e-05		
A6G G7C C10U G35U G40U G60A C70G	< 1e-05	< 1e-05		< 1e-05
U46C A53G U54C	0.000138 ± 2.9e-05	0.000673 ± 0.00011		0.00116 ± 0.00021
C34A G66U	< 1e-05	< 1e-05	< 1e-05	
A15G G51C	< 1e-05	< 1e-05	< 1e-05	< 1e-05
C10A A33C G44A A52G U65A	< 1e-05			
A6U A14C G51A	< 1e-05	< 1e-05		
G7U G41U A53G	< 1e-05			< 1e-05
G37A G59A G62A	< 1e-05			
C8G C11G C16G C34A	< 1e-05			< 1e-05
C10A A52U C68A	7.21e-05 ± 2.5e-05			
A15U C34U C50G	0.000153 ± 3.2e-05			0.000132 ± 3.4e-05
C34G G40U G62C	< 1e-05			
G37A G51A C71A	< 1e-05			< 1e-05
G41C U54G C67U	< 1e-05			
A15G U49G G63U C67A	< 1e-05	< 1e-05		
G7C G41C	< 1e-05	< 1e-05	< 1e-05	
C16A G38C C68U	< 1e-05	< 1e-05		
A6U C10G C68U	< 1e-05			
G51U A52U U65G	< 1e-05	< 1e-05		< 1e-05

Variant	self-cleavage kobs at 160 uM GlcN6P (glucosamine-6-phosphate [1]) [s⁻¹]	self-cleavage kobs at 640 uM GlcN6P (glucosamine-6-phosphate [2]) [s⁻¹]	self-cleavage kobs at 10000 uM GlcN6P (glucosamine-6-phosphate [3]) [s⁻¹]	self-cleavage kobs at 2500 uM GlcN6P (glucosamine-6-phosphate [4]) [s⁻¹]
G29A G35A	< 1e-05			< 1e-05
G13C C34G G35C G43U A48C C67G C70U	< 1e-05	< 1e-05		
A6G A15C U45A G59A	< 1e-05	< 1e-05		< 1e-05
C10U A42C G63A	< 1e-05	< 1e-05		< 1e-05
A15C A36U A39G	< 1e-05	< 1e-05	< 1e-05	< 1e-05
G7A U30C A64C	< 1e-05	< 1e-05		< 1e-05
A14G U31C U56A	0.0016 ± 0.00031	0.00939 ± 0.0013		0.0277 ± 0.0066
C10G A48G A64U U65A	< 1e-05	< 1e-05		< 1e-05
G37U C50G	7.65e-05 ± 3.7e-05			
G9A U46C G63C	< 1e-05	< 1e-05		
U47C U49A	< 1e-05		< 1e-05	< 1e-05
A36C G41C C50U A64U C68A	< 1e-05	< 1e-05	< 1e-05	< 1e-05
C11G A36C G41C G60A	< 1e-05	< 1e-05		< 1e-05
C34G G38U G44C U49C	< 1e-05			
C16U G29C G44U C67G	0.000224 ± 0.0001			
G9U G29A G35U U46G	< 1e-05	< 1e-05		< 1e-05
A15U G38C C71A	< 1e-05			< 1e-05
A15G U55G C70A	7.19e-05 ± 1.2e-05	0.000151 ± 2.6e-05		0.000186 ± 3.7e-05
A14G A15G G35U	< 1e-05	< 1e-05		< 1e-05
G63A C70G C71G	5.57e-05 ± 1.4e-05	4.83e-05 ± 1.9e-05		
G9A U30C A42C C70U	< 1e-05	< 1e-05		
C16U U55C	0.00153 ± 0.00037			0.00585 ± 0.0013
G38U U56C U65A	< 1e-05		< 1e-05	< 1e-05
A1U U2A G63A	< 1e-05			
G9A A36G A64C	< 1e-05			< 1e-05
G51U C61A C71A	< 1e-05	< 1e-05		< 1e-05
